# Results: a protein production outcome set (Wang et al. 2014)
# Assay: label from the status in PepcDB records
row,Sequence,protein production
1,MKHEAIGHDTIAKFLLTSGSTGNPKAVINTQRMICANQVMIREAMAFLKDEPPVIVDWLPWNHTFGGNHNIGLTLFNGGSMYIDDGKPTPAGIASTIRNLREIAPTVYFNVPKGYESLLPVLREDQQLRKLFFSRLHAMFFSGASLAAHVWNGLDEVAVAETGARVPMLTGLGATETAPFFMSVTPQTSRSGHVGLEHHHHHH,failed
2,MKHFDYSRGLKAPYSLQVIKSPKGKIVWYFAQPLSLAYLVMLFLGIVLTGIFWKFVPLPLIFGINLNLMIMLYFPNKVARWYTETEFEGKTGLAFLKDGFVYVKNYVLDNRSIISFERVKEIEEFSFKR,failed
3,MKHMKTFVIIGLSNLGIHLLEDLSRLDCQIIIIDTSKELIEEYDVISTESFVVEQFTKNALKRIIPVDTDAVVIDFDDDLGKSALVTHYCNLLGLKEICVKTENRDDAEILKTLGATKIIFPSKDAARRLTPLLVSPNLSTYNIIGYDIIVAETVIPKEYVGKTLFEADLRRECGITVIAVRNLSNSRYEFVDGDYFFLKDDKIVICGKPDSIENFTNNKDLIKDLISGSKEDENLNKDAEKKSRFLGIFNFMKIFQKDRKDN,failed
4,MKHSLSIIFILIAAMMWGTTGTAQVFAPAEAHPIIIGASRLAVGGLALFIFVMAQRKFQLRGWPVLPTFIAALSMAAYQPFFFSAVSITGVAVGTVVAIGSAPIIAGLLDWVIQRKPPGPTWGIATILAIAGCLLLTLPGEEVTVSPVGFLLAIGAGLSFAVYTAASKKLLQQQPSEAVVAVVFSLSALFLVPLFFLYDLSWLTEFRGIIVVLHLGIVATAIAYLLFTRGLTGVASSTAVTLALAEPLTAALLGVFLVGEALSFIAWGGVLLLLLGLAVLTGFTGARTPSTRFMRNKKDKVNVE,failed
5,MKHVGDDVVAIISQDGKVIREIPLTGHKGNEQFTIKGKGAQYNLMEVDGERIRIKEDNSPDQVGVKMGWKSKAGDTIVCLPHKVFVEILEHHHHHH,not failed
6,MKIAALYDIHGNYPALKEVLKQVKKLSPDLVVLGGDLIAGPMPLETLSLLKHVSTTFKTVGIMGNNDQDIVDIYAKKRVGLSRKATEQLTWIANQLSYKQVSFLRNLLPSISIGNYFFCHAVKNDNTTVFSPQQNKAYIETLFKGVQESYIICGHTHIQFELSLPNKKIINAGSIGMPFSNQFGAQWLWLDDNRIEYKRTIFNQQAAIQLISQTEYPFKNEFLEHHHHHH,failed
7,MKIAIFRTSGVIAPFVIDGYITGFREAGHEVWGIDLTTEGLDFTKLRSFQPDFVLAYGYNGFCKSPNGYALRELGIPLVSLHYDCPYLARNDGLSDEINNFPEYYYEFVWDDSFLELLRNDGTENCDHILLATDPTWFHPIALDSPCIESSVCFVGGVSAHVEQNCVGIELVDKFIDEVIYSKLHNMEVPTFEICKQFFSTPEYRAVHQVYTTEPASFWQMIYYKIHGKGSTVMRKYILDSIEGVDLHIYGGGNGWDKPNAIFHEKVPYGTELSKAFQQYALNLNISSLQLEKAINNRPFDAYASKAFMLNDYRDDMIRAFPAHWEEITFRNLDEFAEKGEYFLTHAQERRELVADLYDHTLRHHTYRHRADQIVEKLAAINFLNRPQQPKTQTSRSILAIDEDNYADYCKDLNTCPVCGGTEFNLKFSFLGHEDYKSTFDQCMDCQAVFLNPCPTDEYLTKFYNEIYYSPQHRQKMGWDPNLDTPNPNSFFLHQRRMDFVEKYVPEELKFPRGKLLDIGCSTGAFLWEASLRYWDVCGIEISDKAAEVAREKYGLAVTTGTLLESSFDDETFDVVTAWDVLEHIANPAPFLTILRRILKQGGLILLNTPNINSADAAYAGEQWRHLDAPLHPVLYDFISIRILLKKYGFQCLEVSSGDEYHGQMKIAARKA,failed
8,MKICLIDETGTGDGALSVLAARWGLEHDEDNLMALVLTPEHLELRKRDEPKLGGIFVDFVGGAMAHRRKFGGGRGEAVAKAVGIKGDYLPDVVDATAGLGRDAFVLASVGCRVRMLERNPVVAALLDDGLARGYADAEIGGWLQERLQLIHASSLTALTDITPRPQVVYLDPMFPHKQKSALVKKEMRVFQSLVGPDLDADGLLEPARLLATKRVVVKRPDYAPPLANVATPNAVVTKGHRFDIYAGTPVLEHHHHHH,not failed
9,MKIDKLFIKSIILTFLSMNLLFMILIMLGDLFVNLLNYLEKNIGLKDILYIYYLYLPKAFSDGVALSFLFAISNLIGNLSMRNEIIGLFSCGVPLTRILKPIILISIFISVVLFFFDNYLVIDTIARRDVLIKNSIGDSRSGDKTIIIRDFAREIYNIKSYDIDENTFANLMIIIKDNKDEFQTRYDINKAEWKDNKWRLYGIREFVKVGKKIKENAYDVLDGTGIIKLAPDYIRTVMLSSKALNFTKLINWISFLKAERLNYSDAFFDLLNRIFFSFRLILLSFTVGFIALALKKNIFILSLLNSIAFAVVYVISIVIFNFLADLGYLHIYIASSFTTIFFLIINFFVYRIVRK,failed
10,MKIDVVTIFPAYLDPLRQSLPGRAIASGLVDLQVHDLRRWTYDVHHSVDDSPYGGGPGMVMKAPVWGEALDEICSAETLLVVPTPAGSLFDQATAQRWSAEQHLVFACGRYEGIDQRVAEDSARRMRVEEVSIGDYVLPGGESAAVVMIEAVLRLLTGVLGNPASHQEDSFSPELDRLLEGPSYTRPPSWRGLDVPEILLSGDHARIATWRREVSLRRTRERRPDLAPPE,failed
11,MKIHLGLVVLVFAAMIAAPRSHAADSSAPRVALVIGNSKYPDADKPLSQAVSDARELADDLKRAGFDAELGEDLSGDAMRRAFDRLYQRTKPGAAALVFFSGFGIQSGRQSYLIPADAQIWTEPDVRRDGIALETVLNELNSRGASVKIALIDASRRNPFERRFRSFSAGLAPVIAPSGSLVMYAAALSAVVTDNDSARSPFVTALREEVRAAGRSAEEAFNRARTAVTRASRGEQVPWISSSLAEDFVFTPGAKADKPAVAEPAKQPAAAAPAPAESAKPPTAPAETKPPQAAEAKPSTSRDDDKLVLALASDPTVKSLTAQIADKPSDGNAYYRRGQVYASKGAYRSAIKDFDEAIRLNGKDVEAYNNRCWVRTVIGELEPALADCDQALQLRSNFVDALDSRGLLHLKSGRDKAAIADFDAALKVNPRLTSSLYGRGLARKRIGLASEGEIDLTTAKKLDPNIGKEFAGYGVP,failed
12,MKIIVKTLKGIRFEIEVKPNDSVAEVKKNIETVMGASEYPAAQQILIHKREKLRDETTMEANKVFDKSVIAIIITKGCLEEMEKQNPPLFQMIRHNSAGFVPVLNKESFERDNELAQPEEDLLQLQVTAVDDEAINRVLFYS,failed
13,MKIKATIERVPGGMMIIPLFLGAALNTFAPGTAEFFGGFTGALITGTLPILGVFIFCVGATIDFRSSGYIARKGITLLLGKIGFAALLGVIAAQFIPDDGIQSGFFAGLSVLAIVAVMNETNGGLYLALMNHMGRKEDAGAFAFISTESGPFMTMVTFGVTGLAAFPWETLAATVIPFLLGCILGNLDHDLRDLFSKVVPAIIPFFAFSLGNTLNFGMLIQSGLLGIFIGVSVVILSGSSLFLLDRFIARGDGVAGVAASSTAGAAVAVPYALAEANASFAPVAESATAIIATSVIVTSLLTPLATVWVDKKIKQKKRRTPPPKNQMTIN,failed
14,MKILAISGSARRNSTNTAMLQAVRAVAPGEIEISIFDGVGRLPVFSPDLEGESLPEVVRNLIDVIAQSDGVIIASPEYVRSIPGGLKNAIDWLVSGDDIVHKPIALLHASHRGDDMLAGLRTVLATITDRFAGDIFLRLPLMKLEPADVLKAVEAAENRSRVQAYLQAFSAYCMADSKTA,failed
15,MKILLIGASGTLGSAVKERLEKKAEVITAGRHSGDVTVDITNIDSIKKMYEQVGKVDAIVSATGSATFSPLTELTPEKNAVTISSKLGGQINLVLLGIDSLNDKGSFTLTTGIMMEDPIVQGASAAMANGAVTAFAKSAAIEMPRGIRINTVSPNVLEESWDKLEPFFEGFLPVPAAKVARAFEKSVFGAQTGESYQVY,not failed
16,MKILLKSLVISASLCSPFVLANSEAHSDYLKGTAYLNQDNYKEAITWLTSAANNGSIEAQNKIGTIYAKGIGTEANTQLATQYFLKAAANQSSMAYYNLGKIYESEEKYSTSIDWYNKAIEENNSNAMNNLADLYLHGKGLVQNTHQAELLYIQAAELGNATAMRNLGFLYTNNKEVKQDMSKAYFWFNLAAEKDFPDADKYRDYTGKKLSKSKRIKVQNEALEWLEQHNS,failed
17,MKILPFIARGTSYYLKMSVKKLVPFLVVGLMLAAGDSVYAYSRGNGSIARGDDYPAYYKNGSQEIDQWRMYSRQCTSFVAFRLSNVNGFEIPAAYGNANEWGHRARREGYRVDNTPTIGSITWSTAGTYGHVAWVSNVMGDQIEIEEYNYGYTESYNKRVIKANTMTGFIHFKDLDGGSVGNSQSSTSTGGTHYFKTKSAIKTEPLASGTVIDYYYPGEKVHYDQILEKDGYKWLSYTAYNGSYRYVQLEAVNKNPLGNSVLSSTGGTHYFKTKSAIKTEPLVSATVIDYYYPGEKVHYDQILEKDGYKWLSYTAYNGSRRYIQLEGVTSSQNYQNQSGNISSYGSHSSSTVGWKKINGSWYHFKSNGSKSTGWLKDGSSWYYLKLSGEMQTGWLKENGLWYYLGSSGAMKTGWYQVSGKWYYSYSSGALAVNTTVDGYRVNSDGERV,failed
18,MKILTVNVHAWLEENQMEKIDILARTIAEKQYDVIAMQEVNQLMNNKIIFDDIREENYAWVLLETLQKYTDTDYYLHWSNSHIGFGKYNEGVAVITRHKIKAEDEFYCTFAQSVRTISARRIVSITINYEGQDIEFYSCHMNLPNCETEDMGKNIQTILNRTQNSNLKILMGDFNTDAIGNVAAYENILSQGLFDTYVMAEKKDDGITVDKSIHGWDNDKAKKRLDYIFSNKELKVKESKVIFNNKNKEIVSDHFGIEVKIEF,not failed
19,MKIQLDINGTEIQKGVWVGSGAIIEPGAILNPPCVIGDNCRIESGAVIDSLSVIGNNNVIERDSSVKRSVIWDGNYIEYGSKIRGAILCSKTNLKRYVHIFENAIVGDNCLINERVVIKPNIKIWPQKTVEPFAIVDRNIIWGSKLEHHHHHH,failed
20,MKISFSEIIHNALKEDLGDKGDITTNSILINEKVNFAINTRENLVVCGIPILEEVFNMNKEHVKYEIHKKDGDITGKNSTLVSGEALAIYLLPIERVILNFIQHASGIASITRQFVDEVSGTKVKIRSTRKTTPGLRMLDKYSVCIGGGESYRDNLCDGVLIKDNHIASCGSITLAIQRLRKNLKNEYIAIECDNISQVEESLSNNVDMILLDNMSISEIKKAVDIVNGKSVLEVSGCVNIRNVRNIALTGVDYISIGCITNSFQNKDIGLDIEYNNNK,not failed
21,MKISIICPLYNAENYIMSLHNKILEQEKPEGTEVEVSYVLTRCKDKTEEMLKNMNLQYTLIEPKDFSHSKTREMMAFKSTGDIIVFISQDVMMKNNFWLKNLVQPIIDGECEASFSRQLCTNNTIEKYIREKNYPEESRVVSKKDINKYGLLTFFYSDASSAVKTSVYKELNGYDNKRLLINEDMYFAEKLIQAGYRIKYCSDSEVYHSHVFTLKSLYERYFDTGVFFRQNSQFLNYKGNKSGKDLAIHVLKRSLEDKNFKVTLNILPNFGARFIGSFLGKKYESLPRSFVMASSMSKKVYSQILEHHHHHH,not failed
22,MKISLRLAVSSILGAIAYLGLAIWGMGGFSAFFGHPQLTLIAIATLLMVVAALYSEVNLSSGEQEDQGNRWVLPVFGVIGLLSGFVPAYSDRIDFCTFGGEGLRWLGALLFILGGGLRLWPVFILGRRFSGLVAIQPNHRLVVDGLYRHLRNPSYLGLLVNALGWALAFRSGLGLLLAALTLVPLIARIHAEEALLLKHFGKEYEAYCARSWRLLPGLY,failed
23,MKITGTVVKLGIVSVVLLFFTVMIIVIFGQMRFDRTNGYTAEFSNVSGLRQGQFVRASGVEIGKVKALHLVDGGRRVRVEFNIDRSVPLYQSTTAQIRYSDLIGNRYVELKRGEGKGANDLLPPGGLIPLSRTSPALDLDALIGGFKPVFRALDPAKVNNIANALITVFQGQGGTINDTLDQTAQLTSQIAERDQAIGEVVKNLNIVLDTTVKHRKEFDETVNNLENLITGLRNHSDQLAGGLAHISNGAGTVADLLAENRTLVRKAVSYLDAIQQPVIDQRVELDDLLHKTPTALTALGRANGTYGDFQNFYLCDLQIKWNGFQAGGPVRTVKLFSQPTGRCTPQ,failed
